B1: Tyrosine-protein phosphatase non-receptor type 22 (Homo sapiens), Q9Y2R2 (parent)
chain: MDQREILQKFLDEAQSKKITKEEFANEFLKLKRQSTKYKADKTYPTTVAEKPKNIKKNRYKDILPYDYSRVELSLITSDEDSSYINANFIKGVYGPKAYIATQGPLSTTLLDFWRMIWEYSVLIIVMACMEYEMGKKKCERYWAEPGEMQLEFGPFSVSCEAEKRKSDYIIRTLKVKFNSETRTIYQFHYKNWPDHDVPSSIDPILELIWDVRCYQEDDSVPICIHCSAGCGRTGVICAIDYTWMLLKDGIIPENFSVFSLIREMRTQRPSLVQTQEQYELVYNAVLELFKRQMDVIRDKHSGTESQAKHCIPEKNHTLQADSYSPNLPKSTTKAAKMMNQQRTKMEIKESSSFDFRTSEISAKEELVLHPAKSSTSFDFLELNYSFDKNADTTMKWQTKAFPIVGEPLQKHQSLDLGSLLFEGCSNSKPVNAAGRYFNSKVPITRTKSTPFELIQQRETKEVDSKENFSYLESQPHDSCFVEMQAQKVMHVSSAELNYSLPYDSKHQIRNASNVKHHDSSALGVYSYIPLVENPYFSSWPPSGTSSKMSLDLPEKQDGTVFPSSLLPTSSTSLFSYYNSHDSLSLNSPTNISSLLNQESAVLATAPRIDDEIPPPLPVRTPESFIVVEEAGEFSPNVPKSLSSAVKVKIGTSLEWGGTSEPKKFDDSVILRPSKSVKLRSPKSELHQDRSSPPPPLPERTLESFFLADEDCMQAQSIETYSTSYPDTMENSTSSKQTLKTPGKSFTRSKSLKILRNMKKSICNSCPPNKPAESVQSNNSSSFLNFGFANRFSKPKGPRNPPPTWNI

Variants of: B1
Conditions: with kpcd_human PRKCD

Row | effect of a mutation on the interaction | Variant
1 | decreasing interaction | S35E
